Data taken from the supplement of paper PMC9170038.

Test system: MS2 coat protein
Test: apparent KD of MS2 coat protein; higher = weaker reporter binding
Conditions: Eterna round: R107
Experimental: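 RNA-MaP round R107: designed RNA switches with theophylline, tryptophan, arginine or FMN aptamers are transcribed on-chip within common flanks. They are titrated with SNAP-549-labelled MS2 coat protein in RNA-MaP buffer (100 mM Tris pH 7.5, 80 mM KCl, 4 mM MgCl2), without ligand or with the indicated ligand. Median apparent KD per design.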

[1] = input ligand: theophylline 20 uM
[2] = input ligand: theophylline 2 mM
[3] = input ligand: tryptophan 2.4 mM

Sequence	apparent KD of MS2 coat protein (input ligand: arginine 13.2 mM) [µM]	apparent KD of MS2 coat protein (input ligand: none) [µM]	apparent KD of MS2 coat protein [1] [µM]	apparent KD of MS2 coat protein [2] [µM]	apparent KD of MS2 coat protein [3] [µM]
AUAACAUGAGGAUCACCCAUGUAAGCUGAAGGAGCGCUGGAAACAGCAGGUAGGUCGCAGCGGCGACCUUCCUCAUGAAGGUCGC [(M1)-(M2)-(Arg1)-(Arg2)-(A)'-(M)'-(A)''_Design5]	0.0192	0.0142	0.0256	0.017	0.0185
UAGCGAUCUCGUUAAAGGAUCCCAUUUGAUACCAGAGAACUUUGCCUCCCUUGGCAGCAAGUGACAUGAGGAUCACCCAUGUUGA [theeternabot_exclusion_MS2_Theo_A_3]	0.0164	–	0.02	–	0.0164
UAUAGUACCAGACAUGAGGAUCACCCAUGUCGAGGACCGGUACGGCCGCCACUCGGCAGUUUGCGUCCUCAGGUACUCCGGGUCA [Larisotexe]	0.0176	–	0.0283	0.0261	–
GGACCAGGGAGCGAUACCAGCUUGAGUGUGCUGGCCAGGCACAUGAGGAUCACCCAUGUAGGCCCUUGGCAGCGCUCCCUGGUCC [#1 Exclusion - Theophylline B Attempt #28 (HarryS)]	0.00906	0.00945	0.0165	0.0123	0.0141
GCGACCCUGAGAUCCUGCGUAACGUGAACACGAGGACCGGUACGGCCGCCACUCGAGAGAACAUGAGGAUCACCCAUGUCUGAGC [e-trypA-0(N)]	0.0162	–	0.0284	0.0264	–
UCGAUGGUACCCGAUACCAGCAAUACAUCACAGACCUGAUACAUGAGGAUCACCCAUGUGUGCCCUUGGCAGCGGGUCCUGAAAA [theeternabot_exclusion_MS2_Theo_B_25]	0.0175	–	0.0285	–	0.0206
AAUUCCUAACAUGAGGAUCACCCAUGUGAAGGAGCGCCGAAUAAGGCAGGUAGGUCGCACAUGGAACCGCUACGAAAGUAGCAAA	0.0225	0.0235	0.0236	0.0216	0.0178
GGGUGGUAGGCGGCCGCCACUGAUUUUCAUUCCUGGAUGACAUGAGGAUCACCCAUGUUUACGGGCAGGACCGGGCCUGCUGUGG [aaaW]	0.0348	–	0.0684	0.0666	–
GCAUCCUAGUCGGCCGCCACUGGGUGUACCCAGUGCUGGUACAAACAUGAGGAUCACCCAUGUACCAGGACCGGGACUAGGAUGC [(Trp1)-(MT2)''-(T1)'-(MT2)'-(Ms2)-(Trp2)_Design4]	0.0108	0.0156	0.0212	0.0167	0.0138
UGCCUAAAGUCGGCCGCCACUGAUGGUAUCCUCUCCUCGAGGUCACACAUGAGGAUCACCCAUGUCAGGACCGGGACUAGUGAGA [theeternabot_exclusion_MS2_Trp_B_36]	0.00711	–	0.00965	0.00748	–
UCGUGUAUAACGGAUACCAGUGAGAAGGAUACAUGAGGAUCACCCAUGUGAGUUGAUGUACACCCUUGGCAGCUGUAUAUAUCUA [llpmullin]	0.0583	–	0.0819	–	0.0733
AAGUGGCACGGAAGGAGCGAGUUUACCUAGAUAACAUGAGGAUCACCCAUGUAUAAUGGGACUCAGGUAGGUCGCCGCUGUCACU [#30 Same State - Arginine B]	0.0349	0.0415	0.0583	0.0386	0.0415
AGGAGACAUGAGGAUCACCCAUGUCCAGAUACCAGAAUGUCUUUGUUCCCUUGGCAGCUGUGGAAAUCUGACCUGCCUCGGUCUG [theeternabot_sameState_MS2_Theo_A_31]	0.0146	–	0.0179	–	0.0152
GGGCAAGGUGCCGCCUUCGCCCACUGAGAAGGAGCGCAGGGUACUGCAGGUAGGUCGCUCAGACAUGAGGAUCACCCAUGUAGGA [Esislees]	0.0324	0.0545	0.0899	0.076	0.0576
GGCACAUAGUCGGCCGCCACUAGUGGGAAAUGGGAGAACAUGAGGAUCACCCAUGUAGCGUAGCCUAGGACCGGGACUAUGUGCC [Elephant]	0.0853	–	0.172	0.231	–
ACAUGAGGAUCACCCAUGUAUGAUGUUCCUCGAGGACCGGUACGGCCGCCACUCGAACGAGUGGCGCGCGCGCGCGCGCGCGCGC [aUa]	0.0548	0.0165	0.0351	0.0227	0.0164
AGCACUGUGACGGCCGCCACUACAUAACAUGGGUGGUCAGGUUCAUUACAUGAGGAUCACCCAUGUAGGACCGGGUCUCAGUGCA [Omei Trp Exc B A v11]	0.0121	–	0.0177	0.0126	–
UAAAACAUGAGGAUCACCCAUGUAAUUGAUACCAGAGUGAUGAUCCUCCCUUGGCAGCAAAUAACGCAUUGGAAACAAUGCGAAA [Mat - Same State Theophlline A - Mod of Eli - D26]	0.0514	–	0.0916	–	0.0478
GUACCACAGUCGGCCGCCACUAAGUUGUAUUCCAGCAGGACGAAACAUGAGGAUCACCCAUGUCCUAGGACCGGGACUUCCGUCG [theeternabot_sameState_MS2_Trp_B_41]	0.0169	–	0.0252	0.0256	–

Sequence	apparent KD of MS2 coat protein (input ligand: arginine 13.2 mM) [µM]	apparent KD of MS2 coat protein (input ligand: none) [µM]	apparent KD of MS2 coat protein [1] [µM]	apparent KD of MS2 coat protein [2] [µM]	apparent KD of MS2 coat protein [3] [µM]
CACGGACGAGUGGAUCACCCUUGUAAUAACCGAGGACCGGUACGGCCGCCACUCGAAAACCGUGACCUGUACGAAAAGUGCAGGA	0.0142	0.0265	0.148	0.466	0.195
AGCCCUGUACUAGAUACCAGCUACAUGAGGAUCACCCAUGUGCGUCAAGACUGACUGUGUGGCCCUUGGCAGCUGCUCGCAUGUA [Exclusion - Theophylline B (Freestyle 1)]	0.0506	–	0.191	–	0.168
UCGCUCGCCGCAAGGCGAGCGAGUUGCGAUACCAGCCCGGAAACGGGCCCUUGGCAGCGCACAUGAGGAUCACCCAUGUCAUGUU [#1 Exclusion - Theophylline A Attempt #4 (HarryS)]	0.0247	0.025	0.0313	0.0304	0.0161
GAUUACAUGAGGAUCACCCAUGUAACUGAAGGAGCGGUGAUAAAGCCAGGUAGGUCGCAGAACGACAUGUGGUUCAUCCAUGUAA [#16 Exclusion - Arginine A]	0.0337	0.0368	0.0439	0.048	0.0303
ACAUGAGGAUCACCCAUGUAAUACCGGGAAGGAGCGCGUAAGGACGCAGGUAGGUCGCUCGGCGUCCGGCCGCAAGGCCGGACGA [#1 Same State - Arginine A Attempt #12 (HarryS)]	0.021	0.0144	0.0243	0.0107	0.0147
AUGCAUAGCACGGCCGCCACUCAAAUUAAACAUGAGGAUCACCCAUGUAACAUGGAUAAAAUAAAGAGGACCGGGUGAAAUGCAA [JR_SSTryptoB_Sub010]	0.026	–	0.0362	0.0337	–
UGUAACAUGAGGAUCACCCAUGUGAGUGAUACCAGAUUAGUAGUAGUCCCUUGGCAGCACAUUGGGCGAGUGUAUAGUCUAUGCG [Same State - Theophylline A (Freestyle 11)]	0.0946	–	0.219	–	0.155
GAUCUGUCGGGUGAUACCAGCCUCGGCACAUCUCGUGCCGAACAUGAGGAUCACCCAUGUGGCCCUUGGCAGCACAUGACAAAUC [Regebece]	0.064	–	0.652	–	1.05
CCUAUCCAGUCGGCCGCCACUGAAAACAGUGGGUGAACAUGAGGAUCACCCAUGUAGGAUUUCCACAGGACCGGGACUGUAUAGG [Ex Tryptophan B 24]	0.0794	0.933	1.3	1.23	0.223
AUAUUAAUCGGAAGGAGCGGUACAUGAGGAUCACCCAUGUGCGAAGCCAGCAGAUCCCGUUACCAGGUAGGUCGCCGAGUUAUGA [Begebe]	0.0236	0.033	0.0398	0.0375	0.0307
ACAUGAAGAACAGCGGUGGGCGCGCUCGAUACCAGUAUUUUAAAUUACCCUUGGCAGCGACAUGAGGAUCACCCAUGUGAGAUGA [XTheo A #5]	0.0225	0.0181	0.0248	0.0338	0.018
AAUAAGCAGCUGCAAGGUGAUCCUGCAGAUACCAGCUAGGAAACUAGCCCUUGGCAGCUGCAACAUGAGGAUCACCCAUGUAAUA [(T)'-(M)'-(T1)-(T2)-(M1)-(M2)_Design6]	0.0262	–	0.0617	–	0.0307
AAAACCUCACCUGAGGAACACCCAGGUGAUACCAGCCUGGAAACAGGCCCUUGGCAGCACCAGGUCAUCAAAGAUGACCAAAUAA [TheoAX 25 #OpenEnded #AlternativeMS2]	0.0175	0.0227	0.0407	0.595	0.0213
AAUGUAUGCCACAUGAGGAUCACCCAUGUGCGAGGACCGGUACGGCCGCCACUCGGUCGGUGGUUAAUGAAGAUAUACAAUAAUG [XTryp A #12]	0.0106	–	0.0209	0.0135	–
GCAUCCUAGUCGGCCGCCACUGGUACGAAUACCUUCACCCGUGUGCACAUGAGGAUCACCCAUGUCAGGACCGGGACUAGGAUGC [SSTryp B #23]	0.00958	0.00922	0.0138	0.00991	0.00961
AGUUCCAGGUCGGCCGCCACUGGCAUGGCCGGUCCUCGGACUUACAUGAGGAUCACCCAUGUGAACAGGACCGGGACCGCAUGGG [Exclusion Tryptophan B GF 24]	0.0261	–	0.0461	0.0572	–
GGUGGCUGGAUCGAUACCAGCCACCACCGAUAGACCACAUGAGGAUCACCCAUGUUGGGUGGCCCUUGGCAGCGGUCCGGCUGCC [#1 Same State - Theophylline B Attempt #7 (HarryS)]	0.126	–	0.679	–	0.759
AGCGGAACGGAAGGGUCCCAAAAUUGUGAUACCAGCCUUGAAUCCGGCCCUUGGCAGCACAUGAGGAUCACCCAUGUACUGCGAU [Laanor]	0.0112	–	0.0192	–	0.0128
